Among the data in patent US20250296971A1, “GASTRIC INHIBITORY PEPTIDE RECEPTOR LIGANDS” (priority 2021, published 2025) are pIC50 values, retold here.

The chains are these.
B1: Ac-Asp-Trp-5Clw-Hyp-Glu-leu-[Cys(2Lut)-Thp-Leu-Phe-Cys]-NH2 (peptide)
peptide: Ac-DW[Trp(5-Cl)][Hyp]E[dL]C[Thp]LFC-NH2
modifications: linker 7-11 via Pyridine(2,6-diCH2)
SMILES: CC(=O)N[C@@H](CC(=O)O)C(=O)N[C@@H](Cc1c[nH]c2ccccc12)C(=O)N[C@@H](Cc1c[nH]c2ccc(Cl)cc12)C(=O)N1C[C@H](O)C[C@H]1C(=O)N[C@@H](CCC(=O)O)C(=O)N[C@H](CC(C)C)C(=O)N[C@H]1CSCc2cccc(n2)CSC[C@@H](C(N)=O)NC(=O)[C@H](Cc2ccccc2)NC(=O)[C@H](CC(C)C)NC(=O)C2(CCOCC2)NC1=O
B2: Ac-Asp-Egn-5Clw-Hyp-Glu-leu-[Cys(2Lut)-Thp-Leu-Ile-Cys]-NH2 (peptide)
peptide: Ac-D[Phe(3,5-Cl2)][Trp(5-Cl)][Hyp]E[dL]C[Thp]LIC-NH2
modifications: linker 7-11 via Pyridine(2,6-diCH2)
SMILES: CC[C@H](C)[C@@H]1NC(=O)[C@H](CC(C)C)NC(=O)C2(CCOCC2)NC(=O)[C@@H](NC(=O)[C@@H](CC(C)C)NC(=O)[C@H](CCC(=O)O)NC(=O)[C@@H]2C[C@@H](O)CN2C(=O)[C@H](Cc2c[nH]c3ccc(Cl)cc23)NC(=O)[C@H](Cc2cc(Cl)cc(Cl)c2)NC(=O)[C@H](CC(=O)O)NC(C)=O)CSCc2cccc(n2)CSC[C@@H](C(N)=O)NC1=O

*1 amine or outer side, *2 acyl side, *3 side chain or, on linkers, in order; H or OH if unused. Bridges are numbered along the chain shown (N, C = ends). Primed or numbered codes have the meaning given here. [ ]: non-standard residue; d: D form. The star is where a group is joined. Ttds = 1,13-diamino-4,7,10-trioxatridecan-succinamic acid, NCCCOCCOCCOCCCNC(=O)CCC(=O)*; Pro(trans-4-NH2) = O=C([C@@H]1C[C@@H](N[*:3])CN1[*:1])[*:2]; DOTA = O=C(O)CN1CCN(CC(=O)O)CCN(CC(=O)*)CCN(CC(=O)O)CC1; Trp(5-Cl) = N[C@@H](Cc1c[nH]c2ccc(Cl)cc12)C(=O)O; Phe(3,5-Cl2) = N[C@@H](Cc1cc(Cl)cc(Cl)c1)C(=O)O; Pyridine(2,6-diCH2) = c1cc(C[*:1])nc(C[*:2])c1; Trp(7-aza) = N[C@@H](Cc1c[nH]c2ncccc12)C(=O)O; 2Lut″ = 2,6-lutidylidene linking two thiols; Phe(2-Cl) = N[C@@H](Cc1ccccc1Cl)C(=O)O; Hyp = O=C(O)[C@@H]1C[C@@H](O)CN1; 2Lut(3) = 2,6-lutidylidene; hCys = N[C@@H](CCS)C(=O)O; Api = NC1(C(=O)O)CCNCC1; Thp = NC1(C(=O)O)CCOCC1; mli″ = maleimide

Sequence of human Gastric Inhibitory Peptide Receptor (GIPR) (human) (P48546 22-466 limits assumed): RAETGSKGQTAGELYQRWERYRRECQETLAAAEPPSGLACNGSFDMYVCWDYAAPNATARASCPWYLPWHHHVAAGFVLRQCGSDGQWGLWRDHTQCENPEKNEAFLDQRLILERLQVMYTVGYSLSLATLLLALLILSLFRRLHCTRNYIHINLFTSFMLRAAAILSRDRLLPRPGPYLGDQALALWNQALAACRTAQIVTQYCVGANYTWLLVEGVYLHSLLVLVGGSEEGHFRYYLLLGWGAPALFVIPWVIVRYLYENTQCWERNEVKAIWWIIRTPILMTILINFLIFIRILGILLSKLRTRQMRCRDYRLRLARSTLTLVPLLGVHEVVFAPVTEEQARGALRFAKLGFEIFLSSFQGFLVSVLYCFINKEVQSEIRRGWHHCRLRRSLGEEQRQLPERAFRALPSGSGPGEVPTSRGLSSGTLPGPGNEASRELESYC

This assay concerns the target human Gastric Inhibitory Peptide Receptor (GIPR) (human) (UniProt P48546). In words: FACS competition vs biotinylated GIP-057 on CHO-K1-hGIPR cells; category B: pIC50 7.1-8.0.
Regarding Ac-DW[Phe(2,3-Cl2)][Hyp]E[dL]C[Thp]LIC-NH2 (linker 7-11 via 2Lut″) [Ac-Asp-Trp-Egp-Hyp-Glu-leu-[Cys(2Lut)-Thp-Leu-Ile-Cys]-NH2], the pIC50 lay within 7.1 to 8 pic50. Ac-DW[Trp(7-aza)][Hyp]E[dL]C[Thp]LIC-NH2 (linker 7-11 via 2Lut″) [Ac-Asp-Trp-7Nw-Hyp-Glu-leu-[Cys(2Lut)-Thp-Leu-Ile-Cys]-NH2] returned a pIC50 of 7.1 to 8 pic50.

For the molecule Ac-DW[Trp(5-Cl)][Hyp]E[dL]C[Thp]LFC-{(dK)(DOTA)-NH2} (linker 7-11 via Pyridine(2,6-diCH2)) [Ac-Asp-Trp-5Clw-Hyp-Glu-leu-[Cys(2Lut)-Thp-Leu-Phe-Cys]-lys(DOTA)-NH2], the pIC50 lay within 7.1 to 8 pic50. Under Ac-DW[Trp(5-Cl)][Pro(trans-4-NH2)](DOTA)E[dL]C[Thp]LFC-NH2 (linker 7-11 via 2Lut″) [Ac-Asp-Trp-5Clw-Tap(DOTA)-Glu-leu-[Cys(2Lut)-Thp-Leu-Phe-Cys]-NH2] stands 7.1 to 8 pic50. With Ac-D[Phe(2-Cl)][Trp(5-Cl)][Hyp]E[dL]C[Api](DOTA)LIC-NH2 (linker 7-11 via Pyridine(2,6-diCH2)) [Ac-Asp-Ocf-5Clw-Hyp-Glu-leu-[Cys(2Lut)-Apc(DOTA)-Leu-Ile-Cys]-NH2] the figure was 7.1 to 8 pic50. With Ac-DW[Trp(5-Cl)][Hyp]E[dL][hCys][Thp]LIC-NH2 (linker 7-11 via mli″) [Ac-Asp-Trp-5Clw-Hyp-Glu-leu-[Hcy(mli)-Thp-Leu-Ile-Cys]-NH2] the figure was 7.1 to 8 pic50. On to {DOTA-Ttds}-D[Phe(2-Cl)][Trp(5-Cl)][Hyp]E[dL]C[Thp]LIC-NH2 (linker 7-11 via 2Lut(3)) [DOTA-Ttds-Asp-Ocf-5Clw-Hyp-Glu-leu-[Cys(2Lut)-Thp-Leu-Ile-Cys]-NH2], for which the pIC50 fell in the range of 7.1 to 8 pic50.

Consider B1, for which the pIC50 fell in the range of 7.1 to 8 pic50. Under Ac-DW[Phe(3,5-Cl2)][Hyp]E[dL]C[Thp]LIC-NH2 (linker 7-11 via 2Lut″) [Ac-Asp-Trp-Egn-Hyp-Glu-leu-[Cys(2Lut)-Thp-Leu-Ile-Cys]-NH2] stands 7.1 to 8 pic50. With Ac-DW[Trp(5-Cl)][Hyp]E[dL][hCys][Thp]LI[hCys]-NH2 (disulfide 7-11) [Ac-Asp-Trp-5Clw-Hyp-Glu-leu-[Hcy-Thp-Leu-Ile-Hcy]-NH2] the figure was 7.1 to 8 pic50. Under B2 stands 7.1 to 8 pic50. Take {DOTA-Ttds}-DW[Trp(5-Cl)][Hyp]E[dL]C[Thp]LFC-NH2 (linker 7-11 via 2Lut(3)) [DOTA-Ttds-Asp-Trp-5Clw-Hyp-Glu-leu-[Cys(2Lut)-Thp-Leu-Phe-Cys]-NH2]: the pIC50 was 7.1 to 8 pic50. Regarding Ac-D[Phe(2-Cl)][Trp(5-Cl)][Pro(trans-4-NH2)](DOTA)E[dL]C[Thp]LIC-NH2 (linker 7-11 via Pyridine(2,6-diCH2)) [Ac-Asp-Ocf-5Clw-Tap(DOTA)-Glu-leu-[Cys(2Lut)-Thp-Leu-Ile-Cys]-NH2], the pIC50 was in the range of 7.1 to 8 pic50.
